Consider eight molecules from paper doi:10.1101/2024.01.24.576984 (bioRxiv, 2024).

Some results are limits rather than exact numbers.

The first assay deals with 2S-hsINTS13-hsINTS14 (human, UniProt Q9NVM9;Q96SY0). Kind of assay: fluorescence polarisation. In general terms: In fluorescence polarisation assays a small probe gives low polarisation when free and higher when bound to something large.
EDRLERLQEILRKFLYLEREFRQITIS [GFP-hsZNF655 (93-119)] yielded a dissociation constant (Kd) of 17.6 nM. This counts as double-digit nanomolar.

As for EGSSDEEGKLVIDEPAK [GFP-hsHDGF (130-146)], the dissociation constant Kd is 5850 nM.

For the molecule DDWEIGVGNLIIDLDAD [GFP-hsZNF608 (24-40)], the Kd came to 633 nM.

For the molecule YDSDGDKSDDLVVDVSNE [GFP-hsTLE3 (238-255)], the Kd was greater than 10000 nM.

Regarding DTGSETDEEDKLHIAEDD [GFP-hsZEB2 (33-50)], the equilibrium dissociation constant (Kd) is greater than 10000 nM.

In turn, EGEEDEEGKLVIDEPAK [GFP-hsHDGF S2E (130-146)] registered a Kd of 2630 nM. This counts as single-digit micromolar.

As for DEWDIGVGNLIIDLDAD [GFP-hsZNF609 (25-41)], the affinity, expressed as Kd, was 573 nM.

The next assay deals with hsINTS13(1-256Δ27-48) (human, UniProt Q9NVM9 1-256, Δ27-48). Kind of assay: crystal structure.
For the molecule EDRLERLQEILRKFLYLEREFRQITIS [hsZNF655(93-119)], the binding result is reported as “binds”.

The Kd is the equilibrium constant for the complex coming apart. Higher therefore signals a looser complex.
